The results in this text go back to the supplement of paper PMC10567573.

To fix the notation:
B1: RSPH3 (parent)
chain: VDVQTELYLEEIADRIIEVDMECQ
B2: MTMR15 (parent)
chain: YVKAKKSIDKDEEFAGSSPQSSKS
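Note: lentivirally expressed fusions sorted by FACS into six bins by GFP to DsRed ratio, PSI derived from sequencing read proportions per bin multiplied by bin number.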

The first data set covers variants of B1. Kind of data set: protein stability index of a GFP-peptide fusion (GPS, HEK-293T) (PSI 1-6); higher = more stable. Conditions: c terminus: a fixed tail appended.
For VDVQTELYLEEIADRIIEVDWECQ [M21W], the protein stability index was determined as 1.76.

As to VDVQTELYLEEIADRIIEVDYECQ [M21Y], the protein stability index was 1.94.

In the case of VDVQTELYLEEIADRIIEVDKECQ [M21K], the protein stability index was found to be 2.27.

As for VDVQTELYLEEIADRIIEVDNECQ [M21N], the protein stability index came out at 2.99.

For the variant VDVQTELYLEEIADRIIEVDGECQ [M21G], the protein stability index amounted to 4.38.

As to VDVQTELYLEEIADRIIEVDRECQ [M21R], the protein stability index turned out to be 3.8.

VDVQTELYLEEIADRIIEVDHECQ [M21H]: the protein stability index is 3.59.

Turning to VDVQTELYLEEIADRIIEVDPECQ [M21P], the protein stability index was 4.45.

Consider VDVQTELYLEEIADRIIEVDVECQ [M21V], for which the protein stability index worked out at 1.99.

With VDVQTELYLEEIADRIIEVDTECQ [M21T], the protein stability index came to 3.43.

Consider VDVQTELYLEEIADRIIEVDCECQ [M21C], for which the protein stability index is 2.38.

On to VDVQTELYLEEIADRIIEVDDECQ [M21D], for which the protein stability index is 4.54.

On to VDVQTELYLEEIADRIIEVDLECQ [M21L], for which the protein stability index is 1.66.

Take VDVQTELYLEEIADRIIEVDIECQ [M21I]: the protein stability index was 1.91.

With VDVQTELYLEEIADRIIEVDSECQ [M21S], the protein stability index is 3.85.

For the variant VDVQTELYLEEIADRIIEVDQECQ [M21Q], the protein stability index came to 2.49.

As for VDVQTELYLEEIADRIIEVDAECQ [M21A], the protein stability index was 3.23.

On to VDVQTELYLEEIADRIIEVDFECQ [M21F], for which the protein stability index was 1.47.

On to VDVQTELYLEEIADRIIEVDEECQ [M21E], for which the protein stability index is 3.85.

As for VDVQTELYLEEIADRIIEVDMEKQ [C23K], the protein stability index came out at 4.46.

For VDVQTELYLEEIADRIIEVDMEAQ [C23A], the protein stability index came to 3.46.

VDVQTELYLEEIADRIIEVDMEIQ [C23I]: the protein stability index amounted to 2.23.

With VDVQTELYLEEIADRIIEVDMEGQ [C23G], the protein stability index is 3.72.

Turning to VDVQTELYLEEIADRIIEVDMEHQ [C23H], the protein stability index was 4.03.

Regarding VDVQTELYLEEIADRIIEVDMESQ [C23S], the protein stability index came out at 3.85.

For the variant VDVQTELYLEEIADRIIEVDMELQ [C23L], the protein stability index worked out at 3.52.

Regarding VDVQTELYLEEIADRIIEVDMEDQ [C23D], the protein stability index was found to be 4.4.

As for VDVQTELYLEEIADRIIEVDMEMQ [C23M], the protein stability index worked out at 2.34.

As for VDVQTELYLEEIADRIIEVDMETQ [C23T], the protein stability index turned out to be 3.68.

With VDVQTELYLEEIADRIIEVDMEVQ [C23V], the protein stability index was 5.09.

VDVQTELYLEEIADRIIEVDMEQQ [C23Q]: the protein stability index worked out at 4.31.

Take VDVQTELYLEEIADRIIEVDMEEQ [C23E]: the protein stability index came to 4.22.

VDVQTELYLEEIADRIIEVDMERQ [C23R]: the protein stability index was 3.46.

Regarding VDVQTELYLEEIADRIIEVDMEYQ [C23Y], the protein stability index is 2.71.

VDVQTELYLEEIADRIIEVDMEWQ [C23W]: the protein stability index turned out to be 1.88.

As for VDVQTELYLEEIADRIIEVDMEFQ [C23F], the protein stability index was determined as 2.07.

As to VDVQTELYLEEIADRIIEVDMENQ [C23N], the protein stability index was 3.87.

For the variant VDVQTELYLEEIADRIIEVDMEPQ [C23P], the protein stability index turned out to be 4.06.

Regarding VDVQTELYLEEIADRIIEVDMFCQ [E22F], the protein stability index turned out to be 1.9.

Take VDVQTELYLEEIADRIIEVDMQCQ [E22Q]: the protein stability index is 2.01.

With VDVQTELYLEEIADRIIEVDMKCQ [E22K], the protein stability index worked out at 2.27.

In the case of VDVQTELYLEEIADRIIEVDMPCQ [E22P], the protein stability index came out at 2.88.

For the variant VDVQTELYLEEIADRIIEVDMCCQ [E22C], the protein stability index is 1.89.

Regarding VDVQTELYLEEIADRIIEVDMACQ [E22A], the protein stability index was determined as 1.99.

For VDVQTELYLEEIADRIIEVDMTCQ [E22T], the protein stability index stood at 2.17.

Turning to VDVQTELYLEEIADRIIEVDMHCQ [E22H], the protein stability index was determined as 2.06.

For the variant VDVQTELYLEEIADRIIEVDMVCQ [E22V], the protein stability index stood at 1.57.

In the case of VDVQTELYLEEIADRIIEVDMDCQ [E22D], the protein stability index was determined as 2.77.

As to VDVQTELYLEEIADRIIEVDMMCQ [E22M], the protein stability index turned out to be 2.83.

On to VDVQTELYLEEIADRIIEVDMLCQ [E22L], for which the protein stability index came out at 2.53.

In the case of VDVQTELYLEEIADRIIEVDMSCQ [E22S], the protein stability index amounted to 2.22.

On to VDVQTELYLEEIADRIIEVDMRCQ [E22R], for which the protein stability index amounted to 2.03.

On to VDVQTELYLEEIADRIIEVDMGCQ [E22G], for which the protein stability index was found to be 3.05.

For VDVQTELYLEEIADRIIEVDMICQ [E22I], the protein stability index came to 2.81.

Consider VDVQTELYLEEIADRIIEVDMYCQ [E22Y], for which the protein stability index is 2.82.

Regarding VDVQTELYLEEIADRIIEVDMNCQ [E22N], the protein stability index is 2.86.

With VDVQTELYLEEIADRIIEVSMECQ [D20S], the protein stability index was found to be 1.65.

Take VDVQTELYLEEIADRIIEVRMECQ [D20R]: the protein stability index was found to be 1.15.

On to VDVQTELYLEEIADRIIEVNMECQ [D20N], for which the protein stability index was found to be 1.82.

For VDVQTELYLEEIADRIIEVYMECQ [D20Y], the protein stability index is 4.28.

Regarding VDVQTELYLEEIADRIIEVVMECQ [D20V], the protein stability index is 2.51.

For VDVQTELYLEEIADRIIEVTMECQ [D20T], the protein stability index worked out at 3.29.

Turning to VDVQTELYLEEIADRIIEVQMECQ [D20Q], the protein stability index turned out to be 3.34.

With VDVQTELYLEEIADRIIEVPMECQ [D20P], the protein stability index stood at 3.46.

Regarding VDVQTELYLEEIADRIIEVDMECA [Q24A], the protein stability index worked out at 1.95.

For the variant VDVQTELYLEEIADRIIEVDMECR [Q24R], the protein stability index worked out at 2.52.

With VDVQTELYLEEIADRIIEVDMECN [Q24N], the protein stability index was 2.05.

VDVQTELYLEEIADRIIEVDMECS [Q24S]: the protein stability index is 2.72.

As to VDVQTELYLEEIADRIIEVDMECG [Q24G], the protein stability index worked out at 2.79.

For the variant VDVQTELYLEEIADRIIEVDMECV [Q24V], the protein stability index is 1.84.

Consider VDVQTELYLEEIADRIIEVDMECD [Q24D], for which the protein stability index was determined as 2.82.

For VDVQTELYLEEIADRIIEVDMECP [Q24P], the protein stability index worked out at 3.33.

As for VDVQTELYLEEIADRIIEVDMECL [Q24L], the protein stability index came out at 1.33.

Turning to VDVQTELYLEEIADRIIEVDMECH [Q24H], the protein stability index was determined as 2.52.

VDVQTELYLEEIADRIIEVDMECI [Q24I]: the protein stability index amounted to 2.32.

As to VDVQTELYLEEIADRIIEVDMECK [Q24K], the protein stability index was found to be 2.12.

With VDVQTELYLEEIADRIIEVDMECF [Q24F], the protein stability index was 1.14.

Regarding VDVQTELYLEEIADRIIEVDMECW [Q24W], the protein stability index is 1.5.

As for VDVQTELYLEEIADRIIEVDMECE [Q24E], the protein stability index is 2.31.

Regarding VDVQTELYLEEIADRIIEVDMECY [Q24Y], the protein stability index amounted to 2.69.

VDVQTELYLEEIADRIIEVDMECM [Q24M]: the protein stability index amounted to 1.59.

With VDVQTELYLEEIADRIIEVDMECC [Q24C], the protein stability index turned out to be 2.32.

In the case of VDVQTELYLEEIADRIIEVDMECT [Q24T], the protein stability index turned out to be 3.69.

In the next data set the parent is B2. Described as above. The following applies: c terminus: a fixed tail appended.
Regarding YVKAKESIDKDEEFAGSSPQSSKS [K6E], the protein stability index worked out at 3.95.

As to YVKAKGSIDKDEEFAGSSPQSSKS [K6G], the protein stability index turned out to be 3.15.

As to YVKAKMSIDKDEEFAGSSPQSSKS [K6M], the protein stability index came to 3.16.

With YVKAKHSIDKDEEFAGSSPQSSKS [K6H], the protein stability index worked out at 3.26.

For YVKAKISIDKDEEFAGSSPQSSKS [K6I], the protein stability index came to 2.67.

For the variant YVKAKASIDKDEEFAGSSPQSSKS [K6A], the protein stability index was 2.98.

Consider YVKAKDSIDKDEEFAGSSPQSSKS [K6D], for which the protein stability index was 3.87.

As to YVKAKLSIDKDEEFAGSSPQSSKS [K6L], the protein stability index turned out to be 2.55.

Turning to YVKAKFSIDKDEEFAGSSPQSSKS [K6F], the protein stability index came out at 3.02.

In the case of YVKAKCSIDKDEEFAGSSPQSSKS [K6C], the protein stability index is 2.54.

Turning to YFKAKKSIDKDEEFAGSSPQSSKS [V2F], the protein stability index was 4.74.
